These results are taken from patent publication US20160068609A1.

Assay [1] addresses Fc receptors on primary human blood cells: NK cells (CD16+CD56+). Nature of the assay: flow cytometry on human blood cells (Example 7). On the technique in general: Flow cytometry measures light scatter and fluorescence of single cells or particles in a stream.
For assay [2], the target named is Fc receptors on primary human blood cells: granulocytes (CD66+). The experiment in a line: flow cytometry on human blood cells (Example 7).
Assay [3] has the same target. The experiment in a line: flow cytometry on human granulocytes (CD66+).

Consider “Fuc+ cetuximab (high fucose anti-EGFR antibody cetuximab produced in mouse myeloma cell line SP2/0)”, for which the percent of NK cells bound in assay [1] was < 5%. Also, the percent of granulocytes bound in assay [2] is < 5%.

In assay [3], “Fuc- cetuximab (low fucosylation variant of cetuximab; reduced fucose anti-EGFR antibody according to the invention)” came in with a percent of granulocytes bound of 100%.

Turning to “control antibody having an Fc glycosylation pattern similar to that of Fuc- cetugex (including a similarly low fucosylation)”, in assay [3], the percent of granulocytes bound worked out at 20%.
